Measured values taken from patent US20210130436A1 (published 2021).

T1: CD96 (UniProt P40200 22-585, limits assumed)
T1 construct: whole, on cells
T1 sequence (looked up): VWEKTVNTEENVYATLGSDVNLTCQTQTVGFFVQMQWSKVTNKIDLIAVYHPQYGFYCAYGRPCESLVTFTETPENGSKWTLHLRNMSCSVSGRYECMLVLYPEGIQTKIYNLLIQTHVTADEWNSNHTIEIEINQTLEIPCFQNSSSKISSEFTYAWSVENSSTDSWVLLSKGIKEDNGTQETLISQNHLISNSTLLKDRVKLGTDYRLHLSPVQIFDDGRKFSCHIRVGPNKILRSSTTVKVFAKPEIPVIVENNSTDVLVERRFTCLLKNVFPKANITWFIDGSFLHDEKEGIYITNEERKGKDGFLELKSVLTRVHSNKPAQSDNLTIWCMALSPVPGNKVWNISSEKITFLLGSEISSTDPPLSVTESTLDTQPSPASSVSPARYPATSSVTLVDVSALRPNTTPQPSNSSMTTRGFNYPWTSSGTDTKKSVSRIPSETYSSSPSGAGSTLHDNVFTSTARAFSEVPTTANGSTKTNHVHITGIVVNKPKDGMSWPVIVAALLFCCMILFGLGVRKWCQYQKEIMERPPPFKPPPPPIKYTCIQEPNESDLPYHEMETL

T2: CD226 (UniProt Q15762 19-336)
T2 construct: whole, on cells
T2 sequence (looked up): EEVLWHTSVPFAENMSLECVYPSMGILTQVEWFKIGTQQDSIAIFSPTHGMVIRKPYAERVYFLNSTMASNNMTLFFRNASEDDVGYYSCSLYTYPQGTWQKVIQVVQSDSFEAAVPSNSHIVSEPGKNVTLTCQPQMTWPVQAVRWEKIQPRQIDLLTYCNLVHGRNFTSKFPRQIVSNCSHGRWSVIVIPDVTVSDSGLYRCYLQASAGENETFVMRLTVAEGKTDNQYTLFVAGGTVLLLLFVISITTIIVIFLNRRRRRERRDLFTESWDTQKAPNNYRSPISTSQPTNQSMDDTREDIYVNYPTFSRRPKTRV

T3: TIGIT (UniProt Q495A1 22-244)
T3 construct: whole, on cells
T3 sequence (looked up): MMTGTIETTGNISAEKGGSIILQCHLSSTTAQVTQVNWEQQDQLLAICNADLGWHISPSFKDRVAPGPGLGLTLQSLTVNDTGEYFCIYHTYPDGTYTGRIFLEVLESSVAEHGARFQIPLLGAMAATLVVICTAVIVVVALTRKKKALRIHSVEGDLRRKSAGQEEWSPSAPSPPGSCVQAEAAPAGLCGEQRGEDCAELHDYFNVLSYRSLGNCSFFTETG


Assays:
[1] = target: T4, human PD-L1, expressed on CHO cells (human, UniProt Q9NZQ7 19-290); assay: flow cytometry on CHO cells stably expressing human PD-L1; PE anti-human Fc
T4 construct: Full-length surface expression construct transduced by lentivirus into CHO cells; also called huPD-L1; CD274
T4 sequence (Q9NZQ7 19-290): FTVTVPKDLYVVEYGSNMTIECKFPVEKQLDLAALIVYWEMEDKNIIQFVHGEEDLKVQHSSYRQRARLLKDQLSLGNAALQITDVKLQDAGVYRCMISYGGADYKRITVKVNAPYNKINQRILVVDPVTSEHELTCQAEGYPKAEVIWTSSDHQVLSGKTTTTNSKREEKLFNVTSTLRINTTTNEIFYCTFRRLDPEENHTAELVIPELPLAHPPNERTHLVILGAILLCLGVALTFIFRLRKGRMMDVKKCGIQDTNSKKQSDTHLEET

[2] = target: T5, human CTLA-4 (CTLA4), expressed on CHO cells (human, UniProt P16410 36-223); assay: flow cytometry on CHO cells stably expressing human CTLA-4; PE anti-human Fc
T5 construct: Full-length surface expression construct transduced by lentivirus into CHO cells; also called huCTLA4
T5 sequence (P16410 36-223): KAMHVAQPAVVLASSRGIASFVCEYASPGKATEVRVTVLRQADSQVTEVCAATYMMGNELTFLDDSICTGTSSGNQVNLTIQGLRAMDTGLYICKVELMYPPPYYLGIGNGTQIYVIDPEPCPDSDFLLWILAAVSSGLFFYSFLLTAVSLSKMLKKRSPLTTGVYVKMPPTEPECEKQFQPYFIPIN

[3] = target: T6, human CTLA4 (huCTLA4), full-length, stably expressed on CHO cells (human, UniProt P16410 36-223); assay: flow cytometry, CHO cells expressing huCTLA4
T6 construct: whole, on cells
T6 sequence (P16410 36-223): as above

[4] = target: T7, human PD-L1 (huPD-L1), full-length, stably expressed on CHO cells (human, UniProt Q9NZQ7 19-290); assay: flow cytometry, CHO cells expressing huPD-L1
T7 construct: whole, on cells
T7 sequence (Q9NZQ7 19-290): as the sequence (Q9NZQ7 19-290) above

[5] = target: T8, CD28, endogenously expressed on Jurkat/IL2 reporter cells (human, UniProt P10747 19-220); assay: flow cytometry, Jurkat/IL2 reporter cells (endogenous CD28)
T8 construct: whole, on cells

[6] = target: T7, human PD-L1 (huPD-L1), full-length, …; assay: flow cytometry; MFI on PD-L1 CHO cells over MFI on Jurkat cells (CD28)
[7] = target: T6, human CTLA4 (huCTLA4), full-length, …; assay: flow cytometry, CHO cells expressing huCTLA4; MFI against WT CD80 of the table
[8] = target: T7, human PD-L1 (huPD-L1), full-length, …; assay: flow cytometry, CHO cells expressing huPD-L1; MFI against WT CD80 of the table
[9] = target: T8, CD28, endogenously expressed on …; assay: flow cytometry, Jurkat/IL2 reporter cells (endogenous CD28); MFI against WT CD80 of the table
CD96 = target: T1, CD96; assay: flow cytometry on cells expressing CD96, Fc fusion at 100 nM
CD226 = target: T2, CD226; assay: flow cytometry on cells expressing CD226, Fc fusion at 100 nM
TIGIT = target: T3, TIGIT; assay: flow cytometry on cells expressing TIGIT, Fc fusion at 100 nM
human CD28 = target: T9, human CD28 (human, UniProt P10747 19-220); assay: flow cytometry on Jurkat cells (CD28)
T9 construct: Endogenous CD28 on Jurkat/IL2 reporter cells

human CTLA-4 = target: T10, human CTLA-4 (human, UniProt P16410 36-223); assay: flow cytometry on CHO cells stably expressing CTLA4
T10 construct: also called huCTLA4
T10 sequence (P16410 36-223): as the sequence (P16410 36-223) above

human PD-L1 = target: T11, human PD-L1 (human, UniProt Q9NZQ7 19-290); assay: flow cytometry on CHO cells stably expressing PD-L1
T11 construct: also called huPD-L1; CD274
T11 sequence (Q9NZQ7 19-290): as the sequence (Q9NZQ7 19-290) above

Row | Binder | MFI at 33.3 nM [1] [MFI] | MFI at 33.3 nM [2] [MFI] | MFI at 100 nM (CD96) [MFI] | MFI at 100 nM (CD226) [MFI] | MFI at 100 nM (TIGIT) [MFI] | other results
1 | variant CD80 IgV-Fc E35D/M43I/M47V/K89N (Fc fusion, not shown: small tags and cut ends; a dimerising Fc or GST, Fc fusion of the variant IgV) VIHVTKEVKEVATLSCGHNVSVEELAQTRIYWQKDKKMVLTMISGDVNIWPEYKNRTIFDITNNLSIVILALRPSDEGTYECVVLKYENDAFKREHLAEVTLSVKAD | 19200 | 278000 | – | – | – | –
2 | variant CD80 IgV-Fc E35D/M47L/Y53F/V68M/A71G/K93R/E95V (Fc fusion, not shown: small tags and cut ends; a dimerising Fc or GST) VIHVTKEVKEVATLSCGHNVSVEELAQTRIYWQKDKKMVLTMMSGDLNIWPEFKNRTIFDITNNLSIMILGLRPSDEGTYECVVLKYEKDAFRRVHLAEVTLSVKAD | – | – | – | – | – | MFI at 33.3 nM [3]: 16000 MFI; MFI at 33.3 nM [4]: 25000 MFI; MFI at 33.3 nM [5]: 383 MFI; Ratio of PDL1:CD28 [6]: 65.3 ratio; Fold change to WT CD80 [7]: 9.1 fold; Fold change to WT CD80 [8]: 486 fold; Fold change to WT CD80 [9]: 12.2 fold
3 | variant CD80 IgV-Fc Q33L/E35D/M43I/Y53F/T62S/L85Q (Fc fusion, not shown: small tags and cut ends; a dimerising Fc or GST, Fc fusion of the variant IgV) VIHVTKEVKEVATLSCGHNVSVEELAQTRIYWLKDKKMVLTMISGDMNIWPEFKNRTIFDISNNLSIVILALRPSDEGTYECVVQKYEKDAFKREHLAEVTLSVKAD | 72100 | 3980 | – | – | – | –
4 | variant CD80 IgV-Fc E35D/M43I/M47L/V68M (Fc fusion, not shown: small tags and cut ends; a dimerising Fc or GST) VIHVTKEVKEVATLSCGHNVSVEELAQTRIYWQKDKKMVLTMISGDLNIWPEYKNRTIFDITNNLSIMILALRPSDEGTYECVVLKYEKDAFKREHLAEVTLSVKAD | – | – | – | – | – | MFI at 33.3 nM [3]: 16200 MFI; MFI at 33.3 nM [4]: 16900 MFI; MFI at 33.3 nM [5]: 1520 MFI; Ratio of PDL1:CD28 [6]: 11.1 ratio; Fold change to WT CD80 [7]: 9.3 fold; Fold change to WT CD80 [8]: 328 fold; Fold change to WT CD80 [9]: 48.3 fold
5 | variant CD80 IgV-Fc E35D/M38T/M43V/M47V/N48R/L85Q (Fc fusion, not shown: small tags and cut ends; a dimerising Fc or GST, Fc fusion of the variant IgV) VIHVTKEVKEVATLSCGHNVSVEELAQTRIYWQKDKKTVLTMVSGDVRIWPEYKNRTIFDITNNLSIVILALRPSDEGTYECVVQKYEKDAFKREHLAEVTLSVKAD | 21800 | 204000 | – | – | – | –
6 | variant CD80 IgV-Fc E35D/M47V/T62A/A71D/K93E (Fc fusion, not shown: small tags and cut ends; a dimerising Fc or GST, Fc fusion of the variant IgV) VIHVTKEVKEVATLSCGHNVSVEELAQTRIYWQKDKKMVLTMMSGDVNIWPEYKNRTIFDIANNLSIVILDLRPSDEGTYECVVLKYEKDAFEREHLAEVTLSVKAD | 693 | 226000 | – | – | – | –
7 | variant CD80 IgV-Fc Q33R/E35D/M47V/N48K/L85M/F92L (Fc fusion, not shown: small tags and cut ends; a dimerising Fc or GST, Fc fusion of the variant IgV) VIHVTKEVKEVATLSCGHNVSVEELAQTRIYWRKDKKMVLTMMSGDVKIWPEYKNRTIFDITNNLSIVILALRPSDEGTYECVVMKYEKDALKREHLAEVTLSVKAD | 21400 | 2680 | – | – | – | –
8 | CD155 S42A variant IgV-Fc fusion (Fc fusion, not shown: a dimerising Fc or GST) WPPPGTGDVVVQAPTQVPGFLGDSVTLPCYLQVPNMEVTHVAQLTWARHGESGSMAVFHQTQGPSYSESKRLEFVAARLGAELRNASLRMFGLRVEDEGNYTCLFVTFPQGSRSVDIWLRVL | – | – | 1620 | 2190 | 1930 | –
9 | CD155 S42V/S52E variant IgV-Fc fusion (Fc fusion, not shown: a dimerising Fc or GST) WPPPGTGDVVVQAPTQVPGFLGDSVTLPCYLQVPNMEVTHVVQLTWARHGEEGSMAVFHQTQGPSYSESKRLEFVAARLGAELRNASLRMFGLRVEDEGNYTCLFVTFPQGSRSVDIWLRVL | – | – | 2530 | 2270 | 2060 | –
10 | CD155 S42C/S52M/Q62F variant IgV-Fc fusion (Fc fusion, not shown: a dimerising Fc or GST) WPPPGTGDVVVQAPTQVPGFLGDSVTLPCYLQVPNMEVTHVCQLTWARHGEMGSMAVFHQTFGPSYSESKRLEFVAARLGAELRNASLRMFGLRVEDEGNYTCLFVTFPQGSRSVDIWLRVL | – | – | 1480 | 2080 | 1860 | –
11 | CD155 S42N/S52E/V57L/L104E variant IgV-Fc fusion (Fc fusion, not shown: a dimerising Fc or GST) WPPPGTGDVVVQAPTQVPGFLGDSVTLPCYLQVPNMEVTHVNQLTWARHGEEGSMALFHQTQGPSYSESKRLEFVAARLGAELRNASLRMFGLRVEDEGNYTCEFVTFPQGSRSVDIWLRVL | – | – | 1540 | 1740 | 1780 | –
12 | CD155 S42G/S52Q/L104E/G111R variant IgV-Fc fusion (Fc fusion, not shown: a dimerising Fc or GST) WPPPGTGDVVVQAPTQVPGFLGDSVTLPCYLQVPNMEVTHVGQLTWARHGEQGSMAVFHQTQGPSYSESKRLEFVAARLGAELRNASLRMFGLRVEDEGNYTCEFVTFPQRSRSVDIWLRVL | – | – | – | 2020 | 2010 | –
13 | CD155 S42G/S52L/Q62F/L104Q variant IgV-Fc fusion (Fc fusion, not shown: a dimerising Fc or GST) WPPPGTGDVVVQAPTQVPGFLGDSVTLPCYLQVPNMEVTHVGQLTWARHGELGSMAVFHQTFGPSYSESKRLEFVAARLGAELRNASLRMFGLRVEDEGNYTCQFVTFPQGSRSVDIWLRVL | – | – | 1640 | 2160 | 1920 | –
14 | CD155 S42N variant IgV-Fc fusion (Fc fusion, not shown: a dimerising Fc or GST) WPPPGTGDVVVQAPTQVPGFLGDSVTLPCYLQVPNMEVTHVNQLTWARHGESGSMAVFHQTQGPSYSESKRLEFVAARLGAELRNASLRMFGLRVEDEGNYTCLFVTFPQGSRSVDIWLRVL | – | – | 1690 | 1910 | 1820 | –
15 | CD155 S42L variant IgV-Fc fusion (Fc fusion, not shown: a dimerising Fc or GST) WPPPGTGDVVVQAPTQVPGFLGDSVTLPCYLQVPNMEVTHVLQLTWARHGESGSMAVFHQTQGPSYSESKRLEFVAARLGAELRNASLRMFGLRVEDEGNYTCLFVTFPQGSRSVDIWLRVL | – | – | 1620 | 2190 | 1930 | –
16 | CD80 E35D/M47V/N48K/V68M/K89N IgV-Fc, (EAAAK)3 linker (Fc fusion, not shown: a dimerising Fc or GST) VIHVTKEVKEVATLSCGHNVSVEELAQTRIYWQKDKKMVLTMMSGDVKIWPEYKNRTIFDITNNLSIMILALRPSDEGTYECVVLKYENDAFKREHLAEVTLSVKADEAAAKEAAAKEAAAK | – | – | – | – | – | MFI at 33.3 nM (human CD28): 1280 MFI; MFI at 33.3 nM (human CTLA-4): 27100 MFI; MFI at 33.3 nM (human PD-L1): 24500 MFI
